The record followed here is US20260069689A1 (Regeneron, published 2026).

The target in experiment [1] is T1, SARS-CoV2 Spike ecto foldon Trimer expressed with a C-terminal myc-myc-hexahistidine (SARS-CoV-2, UniProt P0DTC2 14-1213).
T1 construct: extracellular domain
The experiment can be described thus: SPR Biacore, mAb captured by anti-hFc, 25C.

The target of experiment [2] is T1, SARS-CoV2 Spike ecto foldon Trimer …. The experiment can be described thus: SPR Biacore, mAb captured by anti-hFc, 37C. (SPR reads the build-up and loss of mass on a sensor chip optically.)

The Kd is the concentration at which binding is half-saturated. The low end stands for tighter binding, the high end for weaker binding. Usually koff stands for the rate constant with which the complex falls apart. Lower therefore signals a long-lived complex. Broadly, the kon is a measure of how fast the partners come together. High values mean faster complex formation, low ones slower complex formation. For orientation: t½ means how long it takes for the measured level to halve. A higher t½ goes with slow decline.

B1: mAb14282 (antibody, V domains shown)
VH: QVQLVQSGAEVKKPGASVKVSCKASGYIFTDHYMHWVRQAPGQGLEWMGWINPNSGATNYAQNFQGRVTMTRDTSIITVYMELSRLRSDDTAVYYCARDSSPYMIRYTMDVWGQGTTITVSS
VL: QSALTQPASVSGSPGQSITISCTGTSSDVGSYNLVSWYQQHPGKAPKLMIYELTKRPSGVSNRFSGSKSGNTASLTISGLQAEDEADYYCSSYRGSVTDVVFGGGTKLTVLG
Regarding B1, in experiment [1], the Kd is 62.4 pM, the dissociation rate constant (koff) came to 0.000133 s⁻¹, the kon was 2.14e+06 M⁻¹ s⁻¹ and the t½ was determined as 1.44 h. In experiment [2], the Kd is 162 pM, the koff was 0.000171 s⁻¹, the on-rate constant (kon) was determined as 1.05e+06 M⁻¹ s⁻¹ and the t½ turned out to be 1.13 h.

B2: mAb15160 (antibody, V domains shown)
VH: EVQLVESGGGLVQPGGSLRLSCSASGFTFSRYAMYWVRQAPGKGLEYVSAISSDGGSTYDADSVKGRFTISRANSKNTLYLQMSSLRAEDTAVYYCVKGLRELLYYYYGMDVWGQGTTVTVSS
VL: DIQMTQSPSSLSASVGDRVTITCRAGQSISSFLNWYQQKPGKAPKLLIYAASSLQSGVPSRFSGSGSGTDFTLTISSLQPEDFATYYCQQSYITPFTFGPGTKVDIKR
For B2, in experiment [1], binding was characterised by a dissociation constant (Kd) of 102 pM, the koff was found to be 3.1e-05 s⁻¹, the kon worked out at 304000 M⁻¹ s⁻¹ and the t½ was 6.21 h. Also, in experiment [2], the equilibrium dissociation constant (Kd) turned out to be 132 pM, the off-rate constant (koff) came to 0.000167 s⁻¹, the kon worked out at 1.26e+06 M⁻¹ s⁻¹ and the t½ was 1.15 h.

B3: mAb15159 (antibody, V domains shown)
VH: EVQLVESGGGLVQPGGSLRLSCAASGITVSSNYMTWVRQAPGKGLEWVSLIYSGGSTFYADSVRGRFTISRDNSKNTLYLQMNSLRAEDTAVYYCARDLVVYGMDVWGQGTTVTVSS
VL: DIQLTQSPSSLSASVGDRVTITCRASQGISSYLAWYQQKPGKAPKLLIYAASTLQSGVPSRFSGSGSGTDFTLTISSLQPEDFATYYCQHLNSDPHTFGQGTKLEIKR
For the molecule B3, in experiment [1], the affinity, expressed as Kd, was 231 pM; the koff is 2.02e-05 s⁻¹; the on-rate (kon) amounted to 87500 M⁻¹ s⁻¹; the t½ was determined as 9.53 h. In experiment [2], this molecule showed a Kd of 68.6 pM, an off-rate (koff) of 3.22e-05 s⁻¹, a kon of 467000 M⁻¹ s⁻¹ and a t½ of 5.99 h.

B4: mAb15157 (antibody, V domains shown)
VH: EVQLVESGGALVQPGGSLRLSCAASGFPFTIYAMTWVRQAPGKGLEWVSVITGSGDSTYYADSVKGRFTISRDNSKNTLYLQMNSLRAEDTAVYYCVKTGEGFFYYYYGMDVWGQGTTVTVSS
VL: QSVLTQPPSVSAAPGQKVTISCSGSSSNIGNSYISWYQQLPGTAPKLLIYVNNKRPSGIPDRFSGSKSGTSATLGITGLQTGDEADYYCGTWDSSLSAGVFGSGTKVTVLG
For the molecule B4, in experiment [1], binding was put at a Kd of 308 pM, the koff turned out to be 9.28e-05 s⁻¹, the kon stood at 302000 M⁻¹ s⁻¹ and the t½ came out at 2.08 h. In experiment [2], this molecule displayed an equilibrium dissociation constant (Kd) of 141 pM, a koff of 0.00024 s⁻¹, a kon of 1.7e+06 M⁻¹ s⁻¹ and a t½ of 0.803 h.

B5: mAb15158 (antibody, V domains shown)
VH: EVQLVESGGGLVQPGGSLRLSCAASGFSFSSNWMSWVRQAPGKGLEWVGNINQDGSEKYYVDSVEGRFTISRDNAKKSLYLQMNSLRAEDTAVYYCARDLGVLWFGDFVDWGQGALVTVSS
VL: DIQMTQSPSSLSASVGDRVTITCRASQAISNSLAWYQQKPGKAPKLLLYAASTLESGVPSRFSGSGSGTDYTLTISSLQPEDFATYYCLQYYGSPRTFGQGTKVEIKR
For the molecule B5, in experiment [1], binding was put at a Kd of 153 pM, the koff came out at 1.4e-05 s⁻¹, the kon worked out at 91500 M⁻¹ s⁻¹ and the t½ amounted to 13.8 h. In experiment [2], the equilibrium dissociation constant (Kd) turned out to be 54.1 pM, the koff came out at 4.07e-05 s⁻¹, the on-rate constant (kon) came to 758000 M⁻¹ s⁻¹ and the t½ was determined as 4.73 h.

B6: mAb14281 (antibody, V domains shown)
VH: QVQLVQSGADVKKPGASVKVSCKTSGYIFTGYYIHWVRQAPGQGLEWMGWINPNSGGTNSAQKFQGRVTMTRDTSISTVYMELSRLRSDDTAVYYCAKSNSFSVLDYNFDYWGQGTLVTVSS
VL: SSELTQDPAVSVALGQTVRITCQGDSLRSYYASWYQQKPGQAPVLVIYDKNNRPSGIPDRFSGSSSGNTASLTITGAQAEDEADYYCNSRDSSRNHLVVFGGGTKLTVLG
In experiment [1], B6 returned an equilibrium dissociation constant (Kd) of 97 pM, an off-rate (koff) of 8.09e-05 s⁻¹, a kon of 834000 M⁻¹ s⁻¹ and a t½ of 2.38 h. In experiment [2], this molecule registered a Kd of 139 pM, an off-rate (koff) of 0.000116 s⁻¹, a kon of 834000 M⁻¹ s⁻¹ and a t½ of 1.66 h.

B7: mAb15156 (antibody, V domains shown)
VH: QLQLQESGPGLVKSSETLSLTCTVSASITGSTYYWGWIRQPPGKGLEWIGSIYYSGTTYYKASLKSRVTISVDTSKNQFSLKLTSVTVADTAVYYCVSHLLGNYHKYGMDVWGQGTTVTVSS
VL: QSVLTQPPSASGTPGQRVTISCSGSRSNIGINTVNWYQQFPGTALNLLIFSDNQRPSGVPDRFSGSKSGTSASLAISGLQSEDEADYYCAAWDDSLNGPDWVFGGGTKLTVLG
In experiment [1], B7 displayed a Kd of 193 pM, an off-rate constant (koff) of 6.61e-05 s⁻¹, a kon of 342000 M⁻¹ s⁻¹ and a t½ of 2.91 h. Moreover, in experiment [2], the equilibrium dissociation constant (Kd) amounted to 112 pM, the koff is 0.000212 s⁻¹, the on-rate constant (kon) worked out at 1.89e+06 M⁻¹ s⁻¹ and the t½ is 0.908 h.

B8: mAb14234 (antibody, V domains shown)
VH: QVQLVESGGGVVQPGRSLRLSCAASGFTFSSYGIHWVRQAPGKGLEWVAIIWYDGSEKYYADSVKGRFTISRDNSKNTLFLQMNSLEAEDTAVYYCARGPDLLTGYYNYFYYGMDVWGQGTTVTVSS
VL: QSVLTQPPSVSGAPGQRVTISCTGSSSNIGIGYDVHWYQQLPGTVPKLLIYGNTNRPSGVPDRFSGSKSGTSASLAITGLQAEDEADYYCQSYDSSLSSYVFGTGTKVTVLG
B8: in experiment [1], binding was put at a Kd of 77.5 pM, the off-rate constant (koff) was 5.48e-05 s⁻¹, the on-rate (kon) was 707000 M⁻¹ s⁻¹ and the t½ amounted to 3.51 h. In experiment [2], binding was characterised by a dissociation constant (Kd) of 102 pM, the koff is 7.16e-05 s⁻¹, the kon worked out at 699000 M⁻¹ s⁻¹ and the t½ was 2.69 h.

B9: mAb14256 (antibody, V domains shown)
VH: QVQLQESGPGLVKPSETLSLTCTVSGGSISSHYWSWIRQPPGKGLEWIGYIYYSGSSNYNPSLKSRVTISVDTSKNQFSLKLNSVTAADTAVYYCARHYDILTGFDWFDPWGQGTLVTVSS
VL: QSVLTQPPSVSGAPGQRVTISCTGSSSNIGTHYDVHWYQQLPGTAPKLLIYGNSNRPSGVPDRFSGSKSGTSASLAITGLQAEDEADYYCQSFDNSLTAPYVFGTGTKVTVLG
For B9, in experiment [1], the affinity, expressed as Kd, was 129 pM; the koff turned out to be 0.000189 s⁻¹; the kon amounted to 1.47e+06 M⁻¹ s⁻¹; the t½ was 1.02 h. For the same molecule, in experiment [2], the dissociation constant Kd worked out at 304 pM, the koff was found to be 0.000242 s⁻¹, the association rate constant (kon) was found to be 796000 M⁻¹ s⁻¹ and the t½ came to 0.795 h.

B10: mAb14285 (antibody, V domains shown)
VH: QVQLVQSGAEVKKPGASVKVSCKASGYTFTGYFIHWVRQAPGQGLEWMGWISPISGGTNYAQKFQGRVTVTRDTSITTAYMELSRLTSDDTAVYHCAREGGTWKGDFDYWGQGTLVTVSS
VL: QSALTQPASVSGSPGQSITISCTGTSSDVESYNLVSWYQQHPGKAPKLMIYEGSKRPSGVSNRFSGSKSGNTASLTISGLQAEDEADYYCSSYAGSSTWVFGGGTKLTVLG
In the case of B10, in experiment [1], binding was put at a Kd of 17 pM, the koff turned out to be 3.98e-05 s⁻¹, the kon was determined as 2.34e+06 M⁻¹ s⁻¹ and the t½ was 4.84 h. In experiment [2], this molecule registered a Kd of 35.9 pM, a koff of 4.18e-05 s⁻¹, an on-rate (kon) of 1.16e+06 M⁻¹ s⁻¹ and a t½ of 4.61 h.

B11: mAb14292 (antibody, V domains shown)
VH: EVQLVESGGGLVQPGGSLRLSCVASGFAFSTYEMNWVRQAPGKGLEWVSYISSSGSTIYYADSVKGRLTISRDNVKNSLYLQMNSLRVEDTAIYYCARDAIRNNDILTDPATFDPWGQGTLVTVSS
VL: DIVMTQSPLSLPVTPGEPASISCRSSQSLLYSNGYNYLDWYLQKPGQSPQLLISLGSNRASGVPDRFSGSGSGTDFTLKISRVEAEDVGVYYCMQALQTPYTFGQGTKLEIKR
In experiment [1], B11 gave an equilibrium dissociation constant (Kd) of 7210 pM, a koff of 0.00421 s⁻¹, a kon of 584000 M⁻¹ s⁻¹ and a t½ of 0.045 h. In experiment [2], this molecule yielded a dissociation constant (Kd) of 11500 pM, a dissociation rate constant (koff) of 0.00682 s⁻¹, a kon of 592000 M⁻¹ s⁻¹ and a t½ of 0.0283 h.

B12: mAb14232 (antibody, V domains shown)
VH: QITLKESGPTLVKPTQTLTLTCTFSGFSLSASGVGVGWIRQPPGKALEWLALIYWDDDKRYSPSLKSRLTITKDTSKNQVVLTMTNMDPVDTATYYCAQHKVATIFDYWGQGTLVTVSS
VL: QSALTQPPSASGSPGQSVTISCTATSSDVGNYNYVSWYQQHPGKAPKLMIYEVTKRPSGVPDRFSGSKSGNTASLTVSGLQAEDEADYYCSSYAGSWGVFGGGTKLTVLG
Take B12: in experiment [1], the Kd was 195 pM, the koff is 0.000149 s⁻¹, the kon amounted to 763000 M⁻¹ s⁻¹ and the t½ was 1.29 h. Moreover, in experiment [2], the Kd came out at 177 pM, the koff amounted to 0.000133 s⁻¹, the association rate constant (kon) is 751000 M⁻¹ s⁻¹ and the t½ is 1.45 h.

B13: mAb14230 (antibody, V domains shown)
VH: EVQLVESGGGLIQPGRSLRLSCAASGFTFDDYAMHWVRQAPGKGLEWVSGISWNSVSIDYADSVKGRFTISRDNAKNSLYLQMTSLTVEDTALYYCAKAFGYETLTGSDYFAYWGPGTLVTVSS
VL: EIVLTQSPGTLSLSPGERATLSCRASQTVISTYLAWYQQKPGQSPRLLIYGASSRATGIPDRFSGSGSGTDFTLTISRLEPEDFAVYYCQQYGSSPQLTFGGGTKVEIKR
Regarding B13, in experiment [1], binding was characterised by a dissociation constant (Kd) of 40.4 pM, the koff was 6.09e-05 s⁻¹, the association rate constant (kon) was found to be 1.51e+06 M⁻¹ s⁻¹ and the t½ was determined as 3.16 h. Also, in experiment [2], the dissociation constant (Kd) was determined as 99.1 pM, the off-rate constant (koff) turned out to be 8.97e-05 s⁻¹, the on-rate (kon) was 906000 M⁻¹ s⁻¹ and the t½ worked out at 2.14 h.

B14: mAb14280 (antibody, V domains shown)
VH: QVQLVQSGAEVKKPGASVRVSCKASGYTFTGNYIHWVRQAPGQGLEWMAWINPNSGGKNYAQKFQGRVTLTRDTSVNTAYMELSRLRSDDTAMYYCARDVNYNILTGPGGLWGQGTLVTVSS
VL: QSALTQPPSASGSPGQSVTISCTGTSSDVGGYNFVSWYQQHPGKAPKLMIYEVSKRPSGVPDRFSGSKSGNTASLTVSGLQAEDEADYYCSSYAGSNNFVFGTGTKVTVLG
In experiment [1], B14 showed an equilibrium dissociation constant (Kd) of 13.6 pM, a koff of 2.69e-05 s⁻¹, an association rate constant (kon) of 1.99e+06 M⁻¹ s⁻¹ and a t½ of 7.14 h. In experiment [2], this molecule displayed a dissociation constant (Kd) of 29 pM, a koff of 2.86e-05 s⁻¹, a kon of 985000 M⁻¹ s⁻¹ and a t½ of 6.73 h.
